According to paper PMC11507401, “Functional and Physiological Characterization of Tyrosine Decarboxylases from Olea europaea L. Involved in the Synthesis of the Main Phenolics in Olive Fruit and Virgin Olive Oil” (International Journal of Molecular Sciences, 2024):

Tests used:
[1] = molecular target: T1, OeTDC2 (Olea europaea, UniProt A0A8S0SA91); assay: activity of enzyme extracted and purified with or without PLP; format: biochemical; conditions: PLP in or omitted from lysis and purification buffers; tightly bound cofactor
T1 construct: gene OLEA9_A073377
T1 sequence (A0A8S0SA91 entry or part of it): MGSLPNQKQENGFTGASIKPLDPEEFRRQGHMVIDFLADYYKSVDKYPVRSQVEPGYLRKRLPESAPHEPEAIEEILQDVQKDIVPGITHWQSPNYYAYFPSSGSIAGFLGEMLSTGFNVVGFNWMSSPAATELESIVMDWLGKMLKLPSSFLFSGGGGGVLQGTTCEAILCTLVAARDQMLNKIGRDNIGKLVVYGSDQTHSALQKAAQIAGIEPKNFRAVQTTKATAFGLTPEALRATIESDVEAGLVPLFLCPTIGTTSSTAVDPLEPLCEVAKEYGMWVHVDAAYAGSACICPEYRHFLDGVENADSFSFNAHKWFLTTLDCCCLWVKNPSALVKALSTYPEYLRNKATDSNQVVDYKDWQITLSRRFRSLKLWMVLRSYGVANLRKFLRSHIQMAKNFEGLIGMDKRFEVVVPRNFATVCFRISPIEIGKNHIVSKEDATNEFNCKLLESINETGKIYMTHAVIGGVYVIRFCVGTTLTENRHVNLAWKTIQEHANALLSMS

[2] = molecular target: T2, OeTDC1 (Olea europaea, UniProt A0AB74UCV8); assay: as above; format: biochemical; conditions: PLP in or omitted from lysis and purification buffers; tightly bound cofactor
T2 construct: gene TDC1

[3] = substrate: N[C@@H](Cc1ccc(O)c(O)c1)C(=O)O; assay: purified protein; format: biochemical, Olea europaea; conditions: 50 mM Tris-HCl pH 8.0, 40 °C, 200 µM PLP, 15 min
[4] = substrate: N[C@@H](Cc1ccc(O)cc1)C(=O)O; assay: purified protein; format: biochemical, Olea europaea; conditions: 50 mM Tris-HCl pH 8.0, 40 °C, 200 µM PLP, 15 min

| Molecule | activity of enzyme extracted and purified with or without PLP [1] | activity of enzyme extracted and purified with or without PLP [2] | Km [3] [µM] | Vmax [3] [µmol/min/mg] | kcat [3] [s⁻¹] | kcat/Km [3] [M⁻¹ s⁻¹] | Km [4] [µM] | Vmax [4] [µmol/min/mg] | kcat [4] [s⁻¹] | kcat/Km [4] [M⁻¹ s⁻¹] |
| --- | --- | --- | --- | --- | --- | --- | --- | --- | --- | --- |
| Cc1ncc(COP(=O)(O)O)c(C=O)c1O [PLP] | it was observed that PLP binds tightly to the olive TDC proteins | it was observed that PLP binds tightly to the olive TDC proteins | – | – | – | – | – | – | – | – |
| OeTDC1 (Olea europaea subsp. europaea) (protein) MGSLQNQKPENGFTGAPIKPLDPEEFRRQGHMVIDFLADYYKNVEKYPVRSQVQPGYLRKRLPESAPHEPEPIEEILQDVQKDIVPGITHWQSPNYYAYFPSSGSIAGFLGEMLSTGFNVVGFNWMSSPAATELESIVMDWLGKMLNLPSSFLFSGGGGGVLQGTTCEGILCTLVAARDQMLNKIGRDNIGKLVVYGSDQTHSALQKAAQIAGIEPKNFRAVQTTKATAFGLTAEALRSTIESDVEAGLVPLFLCPTVGTTSSTAVDPIGPLCEVAKEYGMWVHVDAAYAGSACILPEYRHFLDGVENADSFSFNAHKWFLTTLDCCCLWVKNPSALVKALSTYPEYLRNKATDSNQVVDYKDWQITLSRRFRSLKLWLVLRSYGVANLRKFLRSHIQMAKNFEGLIGMDKRFEVVVPRNFATVCFRISPIEIGKNHIVSKEEVTNEFNSKLLESINEAGKIYVTHAVIGGVYVIRFCVGTTLTENRHVILAWKTIQEHANALLSMS | – | – | 340 | 4.08 | 3.82 | 11300 | 1900 | 12.4 | 12.8 | 6720 |
